According to publication PMC4920411, “Binary Toxin Subunits of Lysinibacillus sphaericus Are Monomeric and Form Heterodimers after In Vitro Activation” (PLoS ONE, 2016):

How the values were obtained:
Settings in all cases: both partners purified
[1] = biological target: T1, activated BinB (act-B), trypsin-cleaved (Lysinibacillus sphaericus); assay: AUC; sedimentation equilibrium, 20°C, 3–10 μM in monomer, 10 to 22.5 krpm, same buffer with 35 mM C8E5 density matched with 16% D2O; global fit to an A+B heteroassociation model (SEDPHAT)
T1 chain: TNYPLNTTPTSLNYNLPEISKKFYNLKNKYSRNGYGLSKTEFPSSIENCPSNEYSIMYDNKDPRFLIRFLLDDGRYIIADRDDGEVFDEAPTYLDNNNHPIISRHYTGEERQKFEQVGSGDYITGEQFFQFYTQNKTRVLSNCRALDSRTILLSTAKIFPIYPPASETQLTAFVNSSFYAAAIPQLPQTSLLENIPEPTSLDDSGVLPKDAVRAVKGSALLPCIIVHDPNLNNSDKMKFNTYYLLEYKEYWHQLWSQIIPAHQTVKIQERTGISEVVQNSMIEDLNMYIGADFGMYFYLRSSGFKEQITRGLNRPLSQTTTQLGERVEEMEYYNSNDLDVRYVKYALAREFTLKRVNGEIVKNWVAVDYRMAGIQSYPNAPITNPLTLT

[2] = biological target: T1, activated BinB (act-B), trypsin-cleaved; assay: AUC; sedimentation equilibrium, 20°C, 3–10 μM in monomer, 10 to 22.5 krpm, 50 mM Tris-HCl pH 9.0, 50 mM NaCl, 1 mM DTT, without detergent; global fit to an A+B heteroassociation model (SEDPHAT)
[3] = biological target: T1, activated BinB (act-B), trypsin-cleaved; assay: SEC; Superdex 200 HR 10/30, 50 mM Tris-HCl pH 9.0, 50 mM NaCl, 1 mM DTT; subunits alone or mixed 1:1, incubated 15 min at room temperature; typically 60 μM before and 18 μM after chromatography (total monomer); eluted band checked by SDS-PAGE and MALDI-TOF

B1: activated BinA (act-A), trypsin-cleaved (domain or fragment)
chain: IDSFIPTEGKYIRVMDFYNSEYPFCIHAPSAPNGDIMTEICSRENNQYFIFFPTDDGRVIIANRHNGSVFTGEATSVVSDIYTGSPLQFFREVKRTMATYYLAIQNPESATDVRALEPHSHELPSRLYYTNNIENNSNILISNKEQIYLTLPSLPENEQYPKTPVLSGIDDIGPNQSEKSIIGSTLIPCIMVSDFISLGERMKTTPYYYVKHTQYWQSMWSALFPPGSKETKTEKSGITDTSQISMTDGINVSIGADFGLRFGNKTFGIKGGFTYDTKTQITNTSQLLIETTYTREYTNTENFPVRYTGYVLASEFTLHRSDGTQVNTIPWVALNDNYTTIARYPHFASEPLLGNTKIITDDQN
modifications: Trypsin-activated. Cleavage sites not given; UniProt mature chain limits used (MALDI about 40.8 kDa). Strain not given; P06575 chosen over the strain variant P05516. / Trypsin-activated. Cleavage
Ka [1]: 1.92e+06 M⁻¹
Ka [2]: 1.19e+06 M⁻¹
stoichiometry N [3]: 1
